Measurements reported in ChEMBL document CHEMBL2073772, “Primary active transport of organic anions on bile canalicular membrane in humans” (Am J Physiol, 1999).

B1: ATP-binding cassette sub-family C member 2 (Homo sapiens) (protein)
chain: MLEKFCNSTFWNSSFLDSPEADLPLCFEQTVLVWIPLGYLWLLAPWQLLHVYKSRTKRSSTTKLYLAKQVFVGFLLILAAIELALVLTEDSGQATVPAVRYTNPSLYLGTWLLVLLIQYSRQWCVQKNSWFLSLFWILSILCGTFQFQTLIRTLLQGDNSNLAYSCLFFISYGFQILILIFSAFSENNESSNNPSSIASFLSSITYSWYDSIILKGYKRPLTLEDVWEVDEEMKTKTLVSKFETHMKRELQKARRALQRRQEKSSQQNSGARLPGLNKNQSQSQDALVLEDVEKKKKKSGTKKDVPKSWLMKALFKTFYMVLLKSFLLKLVNDIFTFVSPQLLKLLISFASDRDTYLWIGYLCAILLFTAALIQSFCLQCYFQLCFKLGVKVRTAIMASVYKKALTLSNLARKEYTVGETVNLMSVDAQKLMDVTNFMHMLWSSVLQIVLSIFFLWRELGPSVLAGVGVMVLVIPINAILSTKSKTIQVKNMKNKDKRLKIMNEILSGIKILKYFAWEPSFRDQVQNLRKKELKNLLAFSQLQCVVIFVFQLTPVLVSVVTFSVYVLVDSNNILDAQKAFTSITLFNILRFPLSMLPMMISSMLQASVSTERLEKYLGGDDLDTSAIRHDCNFDKAMQFSEASFTWEHDSEATVRDVNLDIMAGQLVAVIGPVGSGKSSLISAMLGEMENVHGHITIKGTTAYVPQQSWIQNGTIKDNILFGTEFNEKRYQQVLEACALLPDLEMLPGGDLAEIGEKGINLSGGQKQRISLARATYQNLDIYLLDDPLSAVDAHVGKHIFNKVLGPNGLLKGKTRLLVTHSMHFLPQVDEIVVLGNGTIVEKGSYSALLAKKGEFAKNLKTFLRHTGPEEEATVHDGSEEEDDDYGLISSVEEIPEDAASITMRRENSFRRTLSRSSRSNGRHLKSLRNSLKTRNVNSLKEDEELVKGQKLIKKEFIETGKVKFSIYLEYLQAIGLFSIFFIILAFVMNSVAFIGSNLWLSAWTSDSKIFNSTDYPASQRDMRVGVYGALGLAQGIFVFIAHFWSAFGFVHASNILHKQLLNNILRAPMRFFDTTPTGRIVNRFAGDISTVDDTLPQSLRSWITCFLGIISTLVMICMATPVFTIIVIPLGIIYVSVQMFYVSTSRQLRRLDSVTRSPIYSHFSETVSGLPVIRAFEHQQRFLKHNEVRIDTNQKCVFSWITSNRWLAIRLELVGNLTVFFSALMMVIYRDTLSGDTVGFVLSNALNITQTLNWLVRMTSEIETNIVAVERITEYTKVENEAPWVTDKRPPPDWPSKGKIQFNNYQVRYRPELDLVLRGITCDIGSMEKIGVVGRTGAGKSSLTNCLFRILEAAGGQIIIDGVDIASIGLHDLREKLTIIPQDPILFSGSLRMNLDPFNNYSDEEIWKALELAHLKSFVASLQLGLSHEVTEAGGNLSIGQRQLLCLGRALLRKSKILVLDEATAAVDLETDNLIQTTIQNEFAHCTVITIAHRLHTIMDSDKVMVLDNGKIIECGSPEELLQIPGPFYFMAKEAGIENVNSTKF

Columns and labels:
[1] = target: ATP-binding cassette sub-family C member 2 (Homo sapiens, UniProt Q92887); assay: (§1) TP_TRANSPORTER: uptake in bile canalicular membrane vesicles; assay type: functional, cell membranes, Bile canalicular membrane vesicle
[2] = substrate: CNc1nc2c(Cc3cccnc3)c(C)c(O[C@@H]3O[C@H](C(=O)O)[C@@H](O)[C@H](O)[C@H]3O)c(C)c2s1; assay: as §1; assay type: functional, cell membranes, Homo sapiens, Bile canalicular membrane vesicle
[3] = substrate: N[C@@H](CCC(=O)N[C@H](CSc1ccc([N+](=O)[O-])cc1[N+](=O)[O-])C(=O)NCC(=O)O)C(=O)O; assay: as §1; assay type: functional, cell membranes, Homo sapiens, Bile canalicular membrane vesicle

Row | Molecule | Activity [1] | Km [2] [µM] | Km [3] [µM]
1 | Cc1c(F)c(N2CCNC(C)C2)cc2c1c(=O)c(C(=O)O[C@@H]1O[C@H](C(=O)O)[C@@H](O)[C@H](O)[C@H]1O)cn2C1CC1 (stereo partly drawn) [GREPAFLOXACIN GLUCURONIDE] | substrate [+] |  | 
2 | B1 |  | 14.1 | 193
